The assay concerns the target αB11.4, α-crystallin domain construct of human αB-Crystallin (human) (UniProt P02511). The experiment in a line: 15N NMR relaxation.

“αB11.4, α-crystallin domain construct of human αB-Crystallin (from UniProt P02511 57-158) (domain or fragment)” came in with a stoichiometry N of 2.

The stoichiometry N is the number of molecules, sites or subunits per partner or assembly.

The values are drawn from publication PMC2692910.
